Test results as given in patent US20220064286A1 (Genentech, published 2022).

T1: human TIGIT protein (human, UniProt Q495A1 22-141, limits assumed)
T1 construct: Recombinant protein (Genentech) used in ELISA screening and as SPR analyte; also called TIGIT antigen
T1 sequence: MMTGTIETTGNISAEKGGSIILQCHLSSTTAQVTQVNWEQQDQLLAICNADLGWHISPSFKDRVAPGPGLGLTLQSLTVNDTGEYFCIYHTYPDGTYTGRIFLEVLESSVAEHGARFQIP

T2: human TIGIT on activated human primary T cells (human, UniProt Q495A1 22-244)
T2 construct: also called Human T cell
T2 sequence: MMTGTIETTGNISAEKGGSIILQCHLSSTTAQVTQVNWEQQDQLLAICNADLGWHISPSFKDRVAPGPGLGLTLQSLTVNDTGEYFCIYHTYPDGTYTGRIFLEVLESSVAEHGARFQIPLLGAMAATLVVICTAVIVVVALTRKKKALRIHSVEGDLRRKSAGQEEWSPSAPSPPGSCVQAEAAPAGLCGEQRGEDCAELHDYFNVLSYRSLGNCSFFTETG

T3: full-length human TIGIT on CHO cells (human, UniProt Q495A1 22-244)
T3 construct: also called CHO-hTIGIT; hu TIGIT
T3 sequence: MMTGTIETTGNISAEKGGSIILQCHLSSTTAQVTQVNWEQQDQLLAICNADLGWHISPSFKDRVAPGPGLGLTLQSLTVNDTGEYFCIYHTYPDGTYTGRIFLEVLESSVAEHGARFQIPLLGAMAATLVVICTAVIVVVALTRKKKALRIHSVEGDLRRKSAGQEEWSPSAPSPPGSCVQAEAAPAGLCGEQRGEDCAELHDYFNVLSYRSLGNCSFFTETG


What was measured:
human TIGIT protein [1] = target: T1, human TIGIT protein; test: SPR, captured mAb
Protocol: (§1) Briefly, a series S CM5 biosensor chip was activated with N-ethyl-N′-(3-dimethylaminopropyl)-carbodiimide hydrochloride (EDC) and N-hydroxysuccinimide (NHS) reagents according to the supplier's (GE Healthcare Biosciences, Piscataway, N.J.) instructions, and a human antibody capture kit was applied to couple goat anti-human Fc IgGs in order to achieve approximately 10,000 response units (RU) on each flow cell, followed by blocking un-reacted groups with 1M ethanolamine.
(§2) (flow rate: 30 μl/min) with no regeneration between injections. The sensorgrams were recorded and evaluated by BIAcore™ T200 Evaluation Software (version 2.0) after subtraction of reference cell signal. Association rates (kₒₙ) and dissociation rates (koff) were calculated using a simple one-to-one Langmuir binding model. The equilibrium dissociation constant (KD) was calculated as the ratio koff/kₒₙ.
(§3) The first humanized versions, h6B2, L1H1, h10A5.L1H1, h7E7, L1H1, and h15C8.L1H1, which contain both rat CDRs and framework residues at Vernier positions, and the fully humanized versions, h6B2.L2H5, h10A5.L4H4, h7E7.L5H9, and h15C8.L5H9, which contain only rat CDRs were subject to BIAcore affinity measurement by comparison with original rat antibodies, rat6B2, rat10A5, rat7E7 and rat 15C8. For binding affinity determinations of TIGIT antibodies against human TIGIT, cynomolgus monkey TIGIT and human alanine-scanned TIGIT mutants by single-cycle kinetics, Surface Plasmon Resonance (SRP) measurement with a BIACORE™-T200 instrument was used, as described above.

[2] = target: T4, cynomolgus monkey (cyno) TIGIT protein (cynomolgus monkey, UniProt A0A7N9I9V4 89-209); test: SPR, captured mAb
T4 sequence (A0A7N9I9V4 entry or part of it): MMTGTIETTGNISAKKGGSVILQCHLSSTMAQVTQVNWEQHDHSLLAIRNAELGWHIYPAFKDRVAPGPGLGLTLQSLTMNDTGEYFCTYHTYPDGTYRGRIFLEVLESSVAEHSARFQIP
Protocol: as §1, §2, §3

human TIGIT protein [3] = target: T1, human TIGIT protein; test: SPR, bivalent affinity
[4] = target: T4, cynomolgus monkey (cyno) TIGIT protein; test: SPR, bivalent affinity
human TIGIT protein [5] = target: T1, human TIGIT protein; test: SPR, monovalent affinity
[6] = target: T4, cynomolgus monkey (cyno) TIGIT protein; test: SPR, monovalent affinity
[7] = target: T2, human TIGIT on activated human primary …; test: FACS, activated human T cells
Protocol: The OMT- and SD-derived anti-TIGIT clones were also tested for binding to human primary T cells by FACS analysis. Human PBMC were activated for with plate-bound anti-CD3 (5 μg/ml) and soluble anti-CD28 (2 μg/ml) for 2 days as described in Yu et al. Nature Immunology. 10: 48-57, 2009, which is incorporated herein by reference in its entirety. Cells were then washed and incubated with incubated with each anti-TIGIT antibody at the indicated concentrations and then detected via a FITC-labeled anti-hIgG antibody. Cells were also stained with anti-CD4, anti-CD8, and anti-CD25 (BD bioscience). Human CD4+(CD25+CD4+) and human CD8+(CD25+CD8+) T cells were assessed for binding by the anti-TIGIT clones by FACS. All samples were acquired on LSR-II or LSR-Fortessa instruments (BD Biosciences) and analyzed using FlowJo software (Treestar).

[8] = target: T3, full-length human TIGIT on CHO cells; test: FACS, CHO cells expressing TIGIT
[9] = target: T3, full-length human TIGIT on CHO cells; test: FACS, PVR-Fc on CHO-TIGIT cells; competitor PVR-Fc
Protocol: (§4) These studies were further validated in CHO-TIGIT PVR blocking experiments in which TIGIT-expressing CHO cells were incubated with labeled PVR-Fc fusion protein in the presence of anti-TIGIT antibody or an human IgG1 control (FIG. 4A).

[10] = target: T5, cynomolgus TIGIT on CHO cells (cynomolgus monkey, UniProt A0A7N9I9V4 89-312); test: FACS on CHO cells expressing cyno TIGIT, FITC anti-hIgG detection
T5 construct: whole, on cells; also called CHO-cyTIGIT; cyTIGIT
T5 sequence (A0A7N9I9V4 entry or part of it): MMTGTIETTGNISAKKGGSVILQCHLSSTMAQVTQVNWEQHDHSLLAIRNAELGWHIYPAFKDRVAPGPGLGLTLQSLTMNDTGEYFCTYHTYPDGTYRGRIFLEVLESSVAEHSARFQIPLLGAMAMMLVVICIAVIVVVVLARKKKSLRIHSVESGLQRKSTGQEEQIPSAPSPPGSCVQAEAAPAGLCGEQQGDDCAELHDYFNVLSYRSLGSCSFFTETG
Protocol: Additional in vitro binding studies of the OMT- and SD-derived anti-TIGIT antibody clones were conducted. The OMT- and SD-derived anti-TIGIT clones were tested for binding to human and cyno TIGIT expressed on the surface of CHO cells by FACS analysis. CHO cells were transfected with full-length human TIGIT (CHO-hTIGIT) or cynomologous TIGIT (CHO-cyTIGIT). The TIGIT-expressing CHO cells were incubated with each anti-TIGIT antibody at the indicated concentrations and then detected via a FITC-labeled anti-hIgG antibody (see FIG. 1A) using standard methods. The results, shown in Table 6 and FIGS. 1B-1E, corroborate the results from the BIACORE™ analysis, described above.

[11] = target: T5, cynomolgus TIGIT on CHO cells; test: FACS blocking assay: labelled PVR-Fc (blocked ligand) on CHO cells expressing cyno TIGIT
Protocol: as §4

| Kd (human TIGIT protein [1]) | koff (human TIGIT protein [1]) | kon (human TIGIT protein [1]) | Kd [2] | koff [2] | kon [2] | Kd (human TIGIT protein [3]) | Kd [4] | Kd (human TIGIT protein [5]) | Kd [6] | EC50 [7] | EC50 [8] | IC50 [9] | EC50 (read off the curve) [10] | IC50 (read off the curve) [11] | Binder |
| --- | --- | --- | --- | --- | --- | --- | --- | --- | --- | --- | --- | --- | --- | --- | --- |
| 0.04 nM | 3.5e-05 s⁻¹ | 997000 M⁻¹ s⁻¹ | 0.29 nM | 0.000202 s⁻¹ | 688000 M⁻¹ s⁻¹ | ≤ 0.027 nM | 0.091 nM | 0.035 nM | 0.29 nM | 0.09 nM | 0.52 nM | 0.08 nM |  |  | rat6B2 (antibody, V domains shown, SD rat-derived; rat V domains as FR/HVR pieces; also called 1.6B2; Chimeric 1.6B2) VH: QVSLKESGPGILQPSHTLSLTCSFSGFSLSTYGMGVSWIRQPSEKGLEWLASIWWNGNTYYNPSLKSRLTVSKDASNDQAFLNVTSVDTTDTATYYCAHTGGAVITWFAYWGQGTLVTVSS VL: NIVMTQSPKSMSISVGDRVTMNCKASQSVGKNIAWYQQKPGQSPKLLIYYASNRYTGVPDRFTGGGSGTDFTLTINTVQAEDAAFFYCQHIYNSPYPFGTGTKLEIK |
| 0.03 nM | 1.8e-05 s⁻¹ | 568000 M⁻¹ s⁻¹ | 0.07 nM | 2.7e-05 s⁻¹ | 399000 M⁻¹ s⁻¹ | ≤ 0.004 nM | ≤ 0.009 nM | ≤ 0.018 nM | 0.067 nM | 0.11 nM | 0.1 nM | 0.04 nM | ~0.3 nM | ~0.3 nM | rat7E7 (antibody, V domains shown, SD rat-derived; rat V domains as FR/HVR pieces; also called 1.7E7; Chimeric 1.7E7) VH: EVQLQQSGPELQRPGASVKLSCKATGYTFTEYSIYWVKQRPKQSLEIIGRIDPKNGRTYYVDKFKNRATLTADTSSNTAYMQLSSLTSEDTATYFCTRIYGFYFDFWGQGVMVTASS VL: NIHLTQSPSLLSASVGDRVTLSCKGSQNVNKYLVWYQQKLGEAPKLLIYNTDNLQSGIPSRFSGSGSGTDYTLTISSLQPEDAATYFCYQYNNGFTFGSGTKLEIK |
